Here are results for 1 substance from publication PMC6092394.

Experiment [1] has as its target TRPC4β, CFP- or YFP-tagged (UniProt Q9QUQ5). Kind of experiment: FRET or BRET; three-cube FRET in living cells expressing Gαq (WT)-YFP, M3 and TRPC1α with TRPC4β-CFP or CFP-TRPC5; after stimulation with 100 μM CCh. In general terms: BRET reads energy transfer from a luciferase to a nearby fluorophore.
For experiment [2], the target named is TRPC5, CFP- or YFP-tagged (UniProt Q9QX29). The experiment is described as above.
UniProt Q9QX29, sequence (Q9QX29 whole entry): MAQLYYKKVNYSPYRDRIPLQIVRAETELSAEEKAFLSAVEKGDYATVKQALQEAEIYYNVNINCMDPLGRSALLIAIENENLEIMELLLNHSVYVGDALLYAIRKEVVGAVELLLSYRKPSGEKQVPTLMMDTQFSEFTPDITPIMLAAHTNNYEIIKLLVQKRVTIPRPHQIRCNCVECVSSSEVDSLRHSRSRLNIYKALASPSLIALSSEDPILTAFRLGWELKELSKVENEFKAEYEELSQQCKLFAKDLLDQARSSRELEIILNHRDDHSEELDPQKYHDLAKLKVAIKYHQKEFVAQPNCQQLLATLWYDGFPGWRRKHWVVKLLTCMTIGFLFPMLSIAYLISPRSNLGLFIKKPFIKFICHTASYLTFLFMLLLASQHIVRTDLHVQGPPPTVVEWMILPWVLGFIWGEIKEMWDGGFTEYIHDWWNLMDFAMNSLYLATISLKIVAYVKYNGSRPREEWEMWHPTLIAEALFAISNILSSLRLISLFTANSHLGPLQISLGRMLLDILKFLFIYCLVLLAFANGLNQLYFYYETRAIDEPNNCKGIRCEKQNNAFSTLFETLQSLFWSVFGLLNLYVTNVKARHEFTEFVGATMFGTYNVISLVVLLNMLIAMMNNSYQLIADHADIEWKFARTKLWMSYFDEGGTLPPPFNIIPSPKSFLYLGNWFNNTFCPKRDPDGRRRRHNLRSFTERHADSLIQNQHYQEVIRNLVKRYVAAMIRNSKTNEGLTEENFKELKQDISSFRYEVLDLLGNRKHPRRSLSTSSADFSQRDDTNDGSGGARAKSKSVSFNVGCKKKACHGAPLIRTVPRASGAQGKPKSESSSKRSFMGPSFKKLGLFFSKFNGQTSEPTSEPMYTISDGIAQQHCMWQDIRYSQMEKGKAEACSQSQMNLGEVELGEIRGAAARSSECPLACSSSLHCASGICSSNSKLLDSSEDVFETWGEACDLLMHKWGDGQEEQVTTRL

UniProt Q9QUQ5, sequence (Q9QUQ5 other isoform, or with tags, fused parts or gaps): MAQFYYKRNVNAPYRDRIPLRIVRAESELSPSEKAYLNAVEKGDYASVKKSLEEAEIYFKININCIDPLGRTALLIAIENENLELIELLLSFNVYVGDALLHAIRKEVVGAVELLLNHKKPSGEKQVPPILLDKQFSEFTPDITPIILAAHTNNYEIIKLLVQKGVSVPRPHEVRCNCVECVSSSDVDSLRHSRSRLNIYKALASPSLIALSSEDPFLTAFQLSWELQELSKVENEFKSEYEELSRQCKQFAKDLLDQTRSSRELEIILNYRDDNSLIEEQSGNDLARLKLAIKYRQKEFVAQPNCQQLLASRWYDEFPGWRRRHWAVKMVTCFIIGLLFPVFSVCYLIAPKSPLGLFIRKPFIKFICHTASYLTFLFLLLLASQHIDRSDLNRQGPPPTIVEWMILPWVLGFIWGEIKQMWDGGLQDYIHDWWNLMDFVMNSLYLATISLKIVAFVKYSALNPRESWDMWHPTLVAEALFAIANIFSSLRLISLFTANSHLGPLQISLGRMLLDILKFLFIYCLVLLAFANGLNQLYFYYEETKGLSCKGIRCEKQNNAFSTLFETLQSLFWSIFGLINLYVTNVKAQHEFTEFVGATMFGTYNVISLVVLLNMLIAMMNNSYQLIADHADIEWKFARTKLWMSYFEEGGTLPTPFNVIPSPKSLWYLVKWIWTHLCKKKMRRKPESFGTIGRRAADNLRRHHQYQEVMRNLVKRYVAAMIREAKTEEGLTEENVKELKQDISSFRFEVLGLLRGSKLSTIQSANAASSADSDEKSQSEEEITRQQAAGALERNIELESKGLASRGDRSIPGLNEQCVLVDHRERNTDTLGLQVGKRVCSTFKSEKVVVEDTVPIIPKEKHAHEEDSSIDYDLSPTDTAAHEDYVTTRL

On to “Gαq (WT)-YFP (from UniProt P50148 1-359) (natural protein)”, for which the FRET efficiency (after 100 μM CCh) in experiment [1] is 8.8%; in experiment [2], 15.9%.
